This is an account of results in the supplement of paper PMC7877785.

± gives the uncertainty stated by the source.

The nature of this series: self-splicing fitness, log relative to wild type (ln ratio); higher = more splicing; Tetrahymena group I intron in knt gene, E. coli kanamycin selection, DiMSum; sequences stand for … in CUCUCU…GGAGGGAAAAGUUAUCAGGCAUGCACCUGGUAGCUAGUCUUUAAACCAAUAGAUUGCAUCGGUUUAAAAGGCAAGACCGUCAAAUUGCGGGAAAGGGGUCAACAGCCGUUCAGUACCAAGUCUCAGGGGAAACUUUGAGAUGGCCUUGCAAAGGGUAUGGUAAUAAGCUGACGGACAUGGUCCUAACCACGCAGCCAAGUCCUAAGUCAACAGAUCUUCUGUUGAUAUGGAUGCAGUUCACAGACUAAAUGUCGGUCGGGGAAGAUGUAUUCUUCUCAUAAGAUAUAGUCGGACCUCUCCUUAAUGGGAGCUAGCGGAUGAAGUGAUGCAACACUGGAGCCGCUGGGAACUAAUUUGUAUGCGAAAGUAUAUUGAUUAGUUUUGGAGUACUCGUGGUCG
A digest of the protocol:
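Fitness was computed with DiMSum as the error-weighted combination of replicate fold changes, kanamycin versus none, each normalised to wild type. The library randomised all eight intron nucleotides of the P1ex region, with the intron placed in the knt kanamycin-resistance gene on pET-22b(+) in E. coli BL21(DE3). Six replicate transformations were grown overnight at 37°C or 30°C on LB agar with or without 25 μg/mL kanamycin, plus 100 μg/mL carbenicillin, 50 μM IPTG and 0.2% rhamnose. Pooled colonies were amplicon-sequenced on an Illumina HiSeq 2500.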

UACCAGCAAUAUUACGGAUU: the “self-splicing fitness (ln)” value (30 °C) is -0.984 ± 0.071 and the “self-splicing fitness (ln)” value (37 °C) was -0.93 ± 0.077.

As to UACCAGCAAUAUUACGGCGG, the “self-splicing fitness (ln)” value is, setting by setting: (30 °C) -1.07 ± 0.058; (37 °C) -0.549 ± 0.081.

As for UACCAGCAAUAUUACGGCUA, the “self-splicing fitness (ln)” value by setting is: (30 °C) 0.185 ± 0.066; (37 °C) 0.554 ± 0.089.

With UACCAGCAAUAUUACGGUUA, the “self-splicing fitness (ln)” value was -0.306 ± 0.063 (30 °C) and 0.23 ± 0.076 (37 °C).

As for UACCAGCAAUAUUACGUGCG, the “self-splicing fitness (ln)” value reads like this: (30 °C) -0.811 ± 0.044; (37 °C) -0.367 ± 0.061.

UACCAGCAAUAUUACGUUAU: the “self-splicing fitness (ln)” value (30 °C) was -2.97 ± 0.12 and the “self-splicing fitness (ln)” value (37 °C) is -2.26 ± 0.14.

Turning to UACGAGCAAUAUUACGAGAG, the “self-splicing fitness (ln)” value was -3.93 ± 0.28 (30 °C) and -2.8 ± 0.22 (37 °C).

As to UACGAGCAAUAUUACGAUAC, the “self-splicing fitness (ln)” value by setting is: (30 °C) -3.5 ± 0.19; (37 °C) -1.61 ± 0.13.

UACGAGCAAUAUUACGCCCU: the “self-splicing fitness (ln)” value (30 °C) is -3.96 ± 0.47.

In the case of UACGAGCAAUAUUACGCCUG, the “self-splicing fitness (ln)” value is, setting by setting: (30 °C) -1.65 ± 0.1; (37 °C) -0.887 ± 0.14.

Consider UACGAGCAAUAUUACGCUUA, for which the “self-splicing fitness (ln)” value was -1.96 ± 0.25 (30 °C) and -0.594 ± 0.22 (37 °C).

As to UACGAGCAAUAUUACGGAAA, for the setting “37 °C”, the “self-splicing fitness (ln)” value is -1.29 ± 0.32.

UACGAGCAAUAUUACGGAUC: the “self-splicing fitness (ln)” value (30 °C) was -3.56 ± 0.4 and the “self-splicing fitness (ln)” value (37 °C) is -2.63 ± 0.37.

With UACGAGCAAUAUUACGGCUU, the “self-splicing fitness (ln)” value is, setting by setting: (30 °C) -3.48 ± 0.21; (37 °C) -1.84 ± 0.16.

UACGAGCAAUAUUACGGGCG: the “self-splicing fitness (ln)” value runs as follows: (30 °C) -0.999 ± 0.12; (37 °C) -0.902 ± 0.14.

As for UACGAGCAAUAUUACGGGUG, the “self-splicing fitness (ln)” value by setting is: (30 °C) -1.88 ± 0.074; (37 °C) -0.725 ± 0.087.

UACGAGCAAUAUUACGGUGC: the “self-splicing fitness (ln)” value was -3.46 ± 0.4 (30 °C) and -2.43 ± 0.48 (37 °C).

Consider UACGAGCAAUAUUACGGUUU, for which the “self-splicing fitness (ln)” value was -3.06 ± 0.17 (30 °C) and -2.32 ± 0.18 (37 °C).

For UACGAGCAAUAUUACGUCAG, the “self-splicing fitness (ln)” value was -3.08 ± 0.34 (30 °C) and -3.01 ± 0.36 (37 °C).

Regarding UACGAGCAAUAUUACGUCGA, the “self-splicing fitness (ln)” value is, setting by setting: (30 °C) -2.65 ± 0.42; (37 °C) -1.45 ± 0.25.

In the case of UACGAGCAAUAUUACGUGAA, the “self-splicing fitness (ln)” value (30 °C) was -3.05 ± 0.2.

In the case of UACGAGCAAUAUUACGUGGA, the “self-splicing fitness (ln)” value is -3.55 ± 0.23 (30 °C) and -1.98 ± 0.19 (37 °C).

Regarding UACUAGCAAUAUUACGAAGC, the “self-splicing fitness (ln)” value is -2.06 ± 0.38 (30 °C) and -3.04 ± 0.43 (37 °C).

Regarding UACUAGCAAUAUUACGACGC, the “self-splicing fitness (ln)” value reads like this: (30 °C) -2.01 ± 0.25; (37 °C) 0.0923 ± 0.18.

For UACUAGCAAUAUUACGACGG, the “self-splicing fitness (ln)” value runs as follows: (30 °C) -0.517 ± 0.12; (37 °C) -0.301 ± 0.15.

As to UACUAGCAAUAUUACGACGU, the “self-splicing fitness (ln)” value is -2.22 ± 0.1 (30 °C) and -1.29 ± 0.12 (37 °C).

On to UACUAGCAAUAUUACGCACG, for which the “self-splicing fitness (ln)” value by setting is: (30 °C) -0.877 ± 0.089; (37 °C) -0.992 ± 0.11.

UACUAGCAAUAUUACGCCUA: the “self-splicing fitness (ln)” value runs as follows: (30 °C) -0.895 ± 0.14; (37 °C) 0.591 ± 0.13.

Turning to UACUAGCAAUAUUACGCUCC, the “self-splicing fitness (ln)” value by setting is: (30 °C) -2.42 ± 0.23; (37 °C) -1.21 ± 0.23.

UACUAGCAAUAUUACGGAAA: the “self-splicing fitness (ln)” value runs as follows: (30 °C) -2.64 ± 0.22; (37 °C) -1.27 ± 0.18.

For UACUAGCAAUAUUACGGAGA, the “self-splicing fitness (ln)” value is, setting by setting: (30 °C) -2.59 ± 0.17; (37 °C) -1.84 ± 0.16.

On to UACUAGCAAUAUUACGGAUA, for which the “self-splicing fitness (ln)” value by setting is: (30 °C) -1.72 ± 0.096; (37 °C) -0.886 ± 0.092.

On to UACUAGCAAUAUUACGGCUG, for which the “self-splicing fitness (ln)” value by setting is: (30 °C) -0.825 ± 0.14; (37 °C) -0.545 ± 0.19.

Turning to UACUAGCAAUAUUACGGGGA, the “self-splicing fitness (ln)” value is -1.37 ± 0.14 (30 °C) and -0.992 ± 0.12 (37 °C).

On to UACUAGCAAUAUUACGGUCG, for which the “self-splicing fitness (ln)” value by setting is: (30 °C) -0.0757 ± 0.12; (37 °C) 0.338 ± 0.16.

Consider UACUAGCAAUAUUACGUAUG, for which the “self-splicing fitness (ln)” value is -3.59 ± 0.26 (30 °C) and -1.8 ± 0.23 (37 °C).

UACUAGCAAUAUUACGUGAG: the “self-splicing fitness (ln)” value is -3.38 ± 0.13 (30 °C) and -2.56 ± 0.23 (37 °C).

UAGAAGCAAUAUUACGAAUA: the “self-splicing fitness (ln)” value (30 °C) was -1.14 ± 0.12 and the “self-splicing fitness (ln)” value (37 °C) was -0.376 ± 0.12.

On to UAGAAGCAAUAUUACGAAUC, for which the “self-splicing fitness (ln)” value by setting is: (30 °C) -3.48 ± 0.4; (37 °C) -2.65 ± 0.36.

With UAGAAGCAAUAUUACGAAUG, the “self-splicing fitness (ln)” value by setting is: (30 °C) -0.651 ± 0.071; (37 °C) -0.298 ± 0.09.

As to UAGAAGCAAUAUUACGACAA, the “self-splicing fitness (ln)” value (30 °C) is -0.512 ± 0.1 and the “self-splicing fitness (ln)” value (37 °C) was -0.213 ± 0.11.

UAGAAGCAAUAUUACGACCG: the “self-splicing fitness (ln)” value runs as follows: (30 °C) -0.345 ± 0.18; (37 °C) -0.138 ± 0.25.

As to UAGAAGCAAUAUUACGAGAG, the “self-splicing fitness (ln)” value by setting is: (30 °C) -3.63 ± 0.28; (37 °C) -1.46 ± 0.34.

Consider UAGAAGCAAUAUUACGAGCU, for which the “self-splicing fitness (ln)” value is -3.2 ± 0.25 (30 °C) and -1.18 ± 0.2 (37 °C).

For UAGAAGCAAUAUUACGAGGC, under “37 °C”, the “self-splicing fitness (ln)” value was -2.21 ± 0.42.

Consider UAGAAGCAAUAUUACGAGUG, for which the “self-splicing fitness (ln)” value runs as follows: (30 °C) -0.527 ± 0.048; (37 °C) -0.505 ± 0.071.

In the case of UAGAAGCAAUAUUACGAUCA, the “self-splicing fitness (ln)” value by setting is: (30 °C) -0.731 ± 0.064; (37 °C) 0.138 ± 0.086.

In the case of UAGAAGCAAUAUUACGCAAC, the “self-splicing fitness (ln)” value (30 °C) is -1.44 ± 0.18 and the “self-splicing fitness (ln)” value (37 °C) was -2.33 ± 0.42.

Turning to UAGAAGCAAUAUUACGCACC, the “self-splicing fitness (ln)” value is -2.13 ± 0.27 (30 °C) and -1.44 ± 0.25 (37 °C).

UAGAAGCAAUAUUACGCGAA: the “self-splicing fitness (ln)” value is, setting by setting: (30 °C) -1.61 ± 0.18; (37 °C) -0.748 ± 0.17.

Take UAGAAGCAAUAUUACGCUCA: the “self-splicing fitness (ln)” value (30 °C) amounted to 0.205 ± 0.16 and the “self-splicing fitness (ln)” value (37 °C) was -0.337 ± 0.18.

As to UAGAAGCAAUAUUACGGAUC, the “self-splicing fitness (ln)” value reads like this: (30 °C) -2.24 ± 0.12; (37 °C) -1.49 ± 0.17.

For UAGAAGCAAUAUUACGGCAG, the “self-splicing fitness (ln)” value reads like this: (30 °C) -0.136 ± 0.12; (37 °C) 0.24 ± 0.16.

As for UAGAAGCAAUAUUACGGCGC, the “self-splicing fitness (ln)” value reads like this: (30 °C) -1.94 ± 0.19; (37 °C) -0.275 ± 0.3.

Turning to UAGAAGCAAUAUUACGGCGU, the “self-splicing fitness (ln)” value runs as follows: (30 °C) -0.78 ± 0.077; (37 °C) -0.678 ± 0.11.

Take UAGAAGCAAUAUUACGGGCA: the “self-splicing fitness (ln)” value by setting is: (30 °C) -1.17 ± 0.16; (37 °C) -0.144 ± 0.12.

With UAGAAGCAAUAUUACGUCGG, the “self-splicing fitness (ln)” value is, setting by setting: (30 °C) -0.813 ± 0.073; (37 °C) -0.306 ± 0.091.

As for UAGAAGCAAUAUUACGUGCA, the “self-splicing fitness (ln)” value (30 °C) is -0.492 ± 0.087 and the “self-splicing fitness (ln)” value (37 °C) was -0.0303 ± 0.093.

Regarding UAGAAGCAAUAUUACGUGUC, the “self-splicing fitness (ln)” value runs as follows: (30 °C) -3.27 ± 0.22; (37 °C) -2.31 ± 0.23.

For the sequence UAGAAGCAAUAUUACGUUAA, the “self-splicing fitness (ln)” value is -3.14 ± 0.16 (30 °C) and -1.39 ± 0.15 (37 °C).

For UAGCAGCAAUAUUACGACGA, the “self-splicing fitness (ln)” value by setting is: (30 °C) -0.341 ± 0.07; (37 °C) 0.256 ± 0.079.
